Target: T1, UHRF1_(647-687) (human, UniProt Q96T88-2 647-687)
T1 chain (looked up): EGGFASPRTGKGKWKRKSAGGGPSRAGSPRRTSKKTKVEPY
Assay: ITC

- fold reduction of binding affinity against wild type: 4 fold
B1: USP7 UBL1-2 E736A (domain or fragment)
chain: EAHLYMQVQIVAEDQFCGHQGNDMYDEEKVKYTVFKVLKNSSLAEFVQSLSQTMGFPQDQIRLWPMQARSNGTKRPAMLDNEADGNKTMIELSDNENPWTIFLETVDPELAASGATLPKFDKDHDVMLFLKMYDPKTRSLNYCGHIYTPISCKIRDLLPVMCDRAGFIQDTSLILYAEVKPNLTERIQDYDVSLDKALDELMDGDIIVFQKDDPENDNSELPTAKEYFRDLYH

Source: PMC4558366 (Cell reports, 2015)
